Experimental data from the Human Domainome abundance scans (Beltran et al. 2025).
± gives the uncertainty stated by the source.

B1: E3 ubiquitin-protein ligase TRIM36, residues 208 to 252; numbered along this chain, Q9NQ86 (parent)
chain: KILMCPEHETERINMYCELCRRPVCHLCKLGGNHANHRVTTMSSA

Variants of: B1
Assay: abundance fitness (aPCA) (normalised: wild type 0, dead -1); higher = more abundant; growth selection in yeast, the domain comes from the species named
Conditions: Homo sapiens

Abundance fitness, by site and new letter:
A35: P -0.182 ± 0.074; R -0.129 ± 0.048; L -0.091 ± 0.056; W -0.309 ± 0.053; N -0.339 ± 0.12
H37: D -0.217 ± 0.063; S -0.198 ± 0.063; Q -0.119 ± 0.065; N -0.231 ± 0.078
E9: Y -0.076 ± 0.12; D 0.008 ± 0.075; N -0.052 ± 0.088; C -0.074 ± 0.061; Q -0.062 ± 0.073; G 0.008 ± 0.045
C25: N -0.5 ± 0.21; H -0.603 ± 0.12; S -0.665 ± 0.054; E -0.48 ± 0.072; W -1.1 ± 0.091; I -0.814 ± 0.1
A45: R -0.112 ± 0.094; S -0.074 ± 0.084; Q -0.21 ± 0.2; P 0.015 ± 0.099; C -0.482 ± 0.1
R38: G 0.108 ± 0.045; V 0.036 ± 0.055; Q 0.024 ± 0.078; A 0.021 ± 0.049; S 0.018 ± 0.073; F -0.121 ± 0.1; N -0.002 ± 0.08
Y16: K -0.16 ± 0.1; T 0.284 ± 0.15; V -0.437 ± 0.28; Q -0.306 ± 0.29; F -0.046 ± 0.084; S -0.135 ± 0.074; L -0.053 ± 0.076
E7: R -0.104 ± 0.045; T -0.042 ± 0.062; S -0.103 ± 0.056; Q -0.041 ± 0.058; H 0.01 ± 0.13; F -0.129 ± 0.071
L30: K 0.101 ± 0.065; N 0.042 ± 0.089; T 0.096 ± 0.058; V 0.026 ± 0.048; Q 0.067 ± 0.056; W -0.203 ± 0.058; S 0.075 ± 0.05
H34: R -0.541 ± 0.048; N -0.46 ± 0.084; D -0.326 ± 0.066; F -0.614 ± 0.19
L3: K 0.006 ± 0.058; N -0.013 ± 0.1; I 0.061 ± 0.079; F -0.04 ± 0.19; C -0.055 ± 0.057; D 0.07 ± 0.059; W -0.254 ± 0.053; E 0.163 ± 0.052; V -0.037 ± 0.05
R21: W -0.416 ± 0.065; V 0.01 ± 0.054; N -0.121 ± 0.07; Q -0.002 ± 0.11; F -0.425 ± 0.38; K 0.108 ± 0.071
R12: A -0.258 ± 0.12; W -0.269 ± 0.083; K -0.365 ± 0.28; P 0.186 ± 0.12; L -0.034 ± 0.071
N14: W -0.224 ± 0.072; F 0.08 ± 0.1; T 0.172 ± 0.1; Y -0.065 ± 0.13; K 0.036 ± 0.068; P -0.195 ± 0.12; E 0.048 ± 0.095
